In paper PMC8464517:

Biological target: T1, GLUT1 (Homo sapiens), P11166
T1 chain: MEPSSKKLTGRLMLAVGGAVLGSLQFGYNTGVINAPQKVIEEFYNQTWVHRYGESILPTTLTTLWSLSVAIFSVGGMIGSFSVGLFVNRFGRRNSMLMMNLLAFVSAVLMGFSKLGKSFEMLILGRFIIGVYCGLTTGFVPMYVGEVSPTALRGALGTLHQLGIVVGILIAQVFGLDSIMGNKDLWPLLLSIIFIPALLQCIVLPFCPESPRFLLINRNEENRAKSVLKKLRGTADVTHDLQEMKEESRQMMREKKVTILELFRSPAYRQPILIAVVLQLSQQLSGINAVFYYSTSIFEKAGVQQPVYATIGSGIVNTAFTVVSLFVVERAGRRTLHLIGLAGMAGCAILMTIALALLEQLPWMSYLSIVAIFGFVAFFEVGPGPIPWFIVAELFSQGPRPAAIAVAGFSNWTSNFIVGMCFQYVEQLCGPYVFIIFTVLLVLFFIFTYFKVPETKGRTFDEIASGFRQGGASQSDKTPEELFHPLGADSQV
Assay: ITC
Settings: PIP2/MSP1E3 nanodisc; remark: other sources report otherwise

Kd: 3.8 µM
B1: TXNIP, Q9H3M7 (protein)
chain: MVMFKKIKSFEVVFNDPEKVYGSGEKVAGRVIVEVCEVTRVKAVRILACGVAKVLWMQGSQQCKQTSEYLRYEDTLLLEDQPTGENEMVIMRPGNKYEYKFGFELPQGPLGTSFKGKYGCVDYWVKAFLDRPSQPTQETKKNFEVVDLVDVNTPDLMAPVSAKKEKKVSCMFIPDGRVSVSARIDRKGFCEGDEISIHADFENTCSRIVVPKAAIVARHTYLANGQTKVLTQKLSSVRGNHIISGTCASWRGKSLRVQKIRPSILGCNILRVEYSLLIYVSVPGSKKVILDLPLVIGSRSGLSSRTSSMASRTSSEMSWVDLNIPDTPEAPPCYMDVIPEDHRLESPTTPLLDDMDGSQDSPIFMYAPEFKFMPPPTYTEVDPCILNNNVQ
